Numbering of substitutions follows the chain as printed. In names and notes the source's numbering stands.
B1: hGPC3-1ec (HBLE) (antibody, V domains shown)
VH: EVQLVQSGAEVKKPGATVKISCKVSGYTFTDYEMHWVQQAPGKGLEWMGGIDPETGGTAYNQKFKGRVTLTADKSTDTAYMELSSLRSEDTAVYYCGRYYSFAYWGQGTLVTVSS
VL: DVVMTQSPLSLPVTLGQPASISCRSSQSIVHSNANTYLQWFQQRPGQSPRLLIYKVSNRFSGVPDRFSGSGSGTDFTLKISRVEAEDVGVYYCFQVSHVPYTFGQGTKLEIK
notes: HBLE variable regions on IgG1 with a cysteine substitution at position 239 of the heavy chain (S239C, EU index); 'ec' marks this; Tested unconjugated; also called humanized GPC3-1ec
B2: hGPC3-1 HCLB (antibody, V domains shown)
VH: B1 VH with V24A, M48I, V68A
VL: B1 VL with A34G
notes: Kabat positions
B3: hGPC3-1 HALC (antibody, V domains shown)
VH: QVQLVQSGAEVKKPGASVKVSCKASGYTFTDYEMHWVRQAPGQGLEWIGGIDPETGGTAYNQKFKGRATLTADTSTSTAYMELRSLRSDDTAVYYCARYYSFAYWGQGTLVTVSS
VL: B1 VL with A34G, R50K, E110V, I111M
notes: Kabat positions
B4: hGPC3-1 HDLC (antibody, V domains shown)
VH: B1 VH with V24A, Q38K, M48I, R67K, V68A
VL: B1 VL with A34G, R50K, E110V, I111M
notes: Kabat positions
B5: hGPC3-1 HALB (antibody, V domains shown)
VH: B3 VH
VL: B1 VL with A34G
notes: Kabat position
B6: hGPC3-1 HDLB (antibody, V domains shown)
VH: B1 VH with V24A, Q38K, M48I, R67K, V68A
VL: B1 VL with A34G
notes: Kabat positions
B7: hGPC3-1 HBLA (antibody, V domains shown)
VH: B1 VH
VL: B1 VL with A34G, L51R
notes: Kabat positions
B8: hGPC3-1 HCLC (antibody, V domains shown)
VH: B1 VH with V24A, M48I, V68A
VL: B1 VL with A34G, R50K, E110V, I111M
notes: Kabat positions
B9: hGPC3-1 HBLB (antibody, V domains shown)
VH: B1 VH
VL: B1 VL with A34G
notes: Kabat position
B10: hGPC3-1 HBLC (antibody, V domains shown)
VH: B1 VH
VL: B1 VL with A34G, R50K, E110V, I111M
notes: Kabat positions
B11: hGPC3-1 HDLA (antibody, V domains shown)
VH: B1 VH with V24A, Q38K, M48I, R67K, V68A
VL: B1 VL with A34G, L51R
notes: Kabat positions
B12: hGPC3-1 HCLA (antibody, V domains shown)
VH: B1 VH with V24A, M48I, V68A
VL: B1 VL with A34G, L51R
notes: Kabat positions
B13: murine GPC3-1 antibody (antibody, V domains shown)
VH: QVQLQQSGAELVRPGASVTLSCKASGYTFTDYEMHWVKQTPVHGLEWIGGIDPETGGTAYNQKFKGKATLTADKSSSTAYMDLRSLTSEDSAVYYCGRYYSFAYWGQGTLVTVSA
VL: DVLMTQTPLSLPLSLGDQASISCRSSQSIVHSNGNTYLQWFLQKPGQSPKLLIYKVSNRFSGVPDRFSGSGSGTDFTLKIGRVEAEDLGVYYCFQVSHVPYTFGGGTKLVMK
notes: Murine hybridoma IgG; also called mGPC3-1
B14: hGPC3-1 HBLB-V (antibody, V domains shown)
VH: B1 VH
VL: B1 VL with A34V
notes: Kabat position
B15: hGPC3-1 HBLB-Q (antibody, V domains shown)
VH: B1 VH
VL: B1 VL with N33Q, A34G
notes: Kabat positions
B16: hGPC3-1 HBLE (antibody, V domains shown)
VH: B1 VH
VL: B1 VL
notes: Only variable regions are tied to the antibody; also called lead humanized GPC3-1 antibody
B17: hGPC3-1 HBLD (antibody, V domains shown)
VH: B1 VH
VL: B1 VL with N33D, A34G
notes: Kabat positions

target: T1, Human GPC3 (hGPC3 GP3-H5258, AcroBiosystems), biotinylated (human, UniProt P51654 25-559, biotinylated with Pierce NHS-LC-LC-Biotin at 1.5:1 biotin/protein ratio); assay: BLI (Octet Red 384), biotinylated hGPC3 on SAX biosensors, hGPC3-1ec as analyte, bivalent binding, 1:1 fit, dissociation 1800 sec; bivalent binding, kinetic 1:1 fit, disassociation of 1800 sec
T1 construct: Bought protein; also called immobilized hGPC3
Protocol: (§1) Human GPC3 (hGPC3 GP3-H5258) was purchased from AcroBiosystems and biotinylated using Pierce NHS-LC-LC-Biotin at a molar ratio of 1.5:1 biotin/protein ratio. Biolayer interferometry (BLI) was performed on an Octet Red 384 system (ForteBio) with High Precision Streptavidin (SAX) Biosensors and GPC3 as the probe using hGPC3-1ec as the analyte.

T1 sequence (P51654 25-559 limits assumed): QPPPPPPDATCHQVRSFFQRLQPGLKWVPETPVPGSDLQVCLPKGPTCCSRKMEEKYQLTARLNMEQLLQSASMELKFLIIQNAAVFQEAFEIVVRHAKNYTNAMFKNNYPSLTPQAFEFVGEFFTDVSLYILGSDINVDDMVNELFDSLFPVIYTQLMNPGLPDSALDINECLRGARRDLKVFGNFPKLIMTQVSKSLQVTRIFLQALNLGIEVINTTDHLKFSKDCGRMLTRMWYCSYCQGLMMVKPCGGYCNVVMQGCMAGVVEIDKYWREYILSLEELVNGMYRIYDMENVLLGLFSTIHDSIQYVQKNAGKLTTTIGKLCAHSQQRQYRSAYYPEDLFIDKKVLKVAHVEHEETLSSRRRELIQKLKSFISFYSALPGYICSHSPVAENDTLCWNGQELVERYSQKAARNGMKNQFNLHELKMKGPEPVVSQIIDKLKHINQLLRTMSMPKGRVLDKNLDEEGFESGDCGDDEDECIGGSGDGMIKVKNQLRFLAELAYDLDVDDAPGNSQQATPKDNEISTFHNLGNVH

Binder | koff [s⁻¹]
B1 | 2.3e-05

target: T1, Human GPC3 (hGPC3 GP3-H5258, …); assay: BLI (Octet Red 384), biotinylated hGPC3 on SAX biosensors, hGPC3-1ec as analyte, bivalent binding, 1:1 fit; bivalent binding, kinetic 1:1 fit (kdiss/kon)
Protocol: as §1

Binder | Kd [nM]
B1 | 0.204

target: T1, Human GPC3 (hGPC3 GP3-H5258, …); assay: BLI (Octet Red 384), biotinylated hGPC3 on SAX biosensors, hGPC3-1ec as analyte, bivalent binding, 1:1 fit, association 600 sec; bivalent binding, kinetic 1:1 fit, association of 600 sec
Protocol: as §1

Binder | kon [M⁻¹ s⁻¹]
B1 | 113000

target: T1, Human GPC3 (hGPC3 GP3-H5258, …); assay: BLI/SPR steady state: 600 second maximum response against concentration, half maximal binding (FIG. 6); binding affinity from FIG. 6, not the bivalent kinetic fit
Protocol: (Left) Multiple sensorgrams represent several concentrations (400, 160, 64, 25.6, 10.2, 4.1, and 1.64 nM) of hGPC3-1ec associating with immobilized hGPC3. (Right) The KD was determined by plotting the 600 second maximum response for each concentration and was defined by half maximal binding.
as §1

Binder | Kd [nM]
B1 | 14

target: T2, human Glypican 3 (GPC3) on GPC3-positive cells (human, UniProt P51654 25-554); assay: competition with AlexaFluor-488 labeled mGPC3-1 on GPC3-positive cells, flow cytometry
T2 construct: whole, on cells; the methods say only 'GPC3-positive cells'; also called hGPC3
Protocol: (§2) Cells were centrifuged, washed 3 times with PBS, and resuspended in 125 μL of a PBS+2% FBS solution. […] The EC50 was extrapolated by fitting the data to a sigmoidal dose-response curve with variable slope.

T2 sequence (P51654 25-554 limits assumed): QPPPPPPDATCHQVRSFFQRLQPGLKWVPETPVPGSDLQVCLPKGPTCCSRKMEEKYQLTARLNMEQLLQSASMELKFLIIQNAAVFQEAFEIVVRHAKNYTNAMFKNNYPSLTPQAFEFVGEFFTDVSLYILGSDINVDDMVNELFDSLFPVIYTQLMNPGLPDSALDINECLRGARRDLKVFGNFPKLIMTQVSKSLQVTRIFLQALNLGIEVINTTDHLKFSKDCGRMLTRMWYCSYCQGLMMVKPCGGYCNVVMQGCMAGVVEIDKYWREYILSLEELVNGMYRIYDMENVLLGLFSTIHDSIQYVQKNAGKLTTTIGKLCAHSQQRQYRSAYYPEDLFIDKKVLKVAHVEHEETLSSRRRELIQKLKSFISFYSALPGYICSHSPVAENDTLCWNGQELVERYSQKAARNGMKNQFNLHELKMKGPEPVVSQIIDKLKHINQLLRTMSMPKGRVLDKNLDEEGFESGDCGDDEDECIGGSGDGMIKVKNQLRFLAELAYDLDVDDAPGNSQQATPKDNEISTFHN

Binder | EC50 [nM]
B2 | 18
B3 | 63
B4 | 13
B5 | 91
B6 | 10
B7 | 203
B8 | 19
B9 | 14
B10 | 25
B11 | 149
B12 | 76
B13 | 9

target: T2, human Glypican 3 (GPC3) on …; assay: as above; remark: another data set of the same source
Protocol: as §2

Binder | EC50 [nM]
B9 | 3
B14 | 4
B15 | 7
B16 | 3
B17 | 74

— patent US20210361776A1 (Seagen, published 2021)
